# Literature values as cited in paper PMC11190312.
# Columns and labels:
# [1] = biological target: nucleoprotein (SARS-CoV-1) (UniProt P59595); conditions: cited from earlier work
# [2] = biological target: nucleoprotein (SARS-CoV-2) (UniProt P0DTC9); conditions: cited from earlier work
substance,measurement,setting,value
MASP-2 (from UniProt O00187),Kd,[1],268 nM
same,Kd,[2],514 nM
